Experiments:
[1] = target: T1, EC1 domain of GluR6 (display construct) (UniProt P42260 32-561, limits assumed); assay: co-clustering on transfected cells
T1 construct: domain: EC1 domain
T1 sequence (looked up): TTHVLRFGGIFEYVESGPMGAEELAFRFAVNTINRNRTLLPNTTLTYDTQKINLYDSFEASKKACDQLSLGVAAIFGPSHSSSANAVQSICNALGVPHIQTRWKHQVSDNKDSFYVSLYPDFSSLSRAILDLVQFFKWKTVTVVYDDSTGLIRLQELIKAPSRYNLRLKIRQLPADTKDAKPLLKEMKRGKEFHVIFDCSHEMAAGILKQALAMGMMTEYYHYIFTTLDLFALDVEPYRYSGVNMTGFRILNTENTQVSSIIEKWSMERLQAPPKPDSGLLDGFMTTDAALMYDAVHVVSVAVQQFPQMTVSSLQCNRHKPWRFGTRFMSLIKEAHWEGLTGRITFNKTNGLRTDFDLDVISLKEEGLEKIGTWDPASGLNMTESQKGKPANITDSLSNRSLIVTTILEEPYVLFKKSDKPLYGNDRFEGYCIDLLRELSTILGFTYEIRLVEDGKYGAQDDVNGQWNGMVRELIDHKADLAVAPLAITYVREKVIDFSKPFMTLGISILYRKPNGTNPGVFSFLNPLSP

[2] = target: T2, HA-GluR6 (GluR6 with an N-terminal HA tag) (UniProt P42260 32-908); assay: co-IP from co-transfected HEK 293T cells
T2 construct: mature; also called wildtype HA GluR6

[3] = target: T3, kainate receptor subunit GluR6 (UniProt P42260 32-908, limits assumed); assay: co-clustering in co-transfected 293 cells, immunostaining
T3 construct: whole, on cells

[4] = target: T4, NMDA receptor subunits NR1 and NR2A (UniProt P35439 19-938; Q00959 23-1464); assay: as above
T4 construct: whole, on cells; Co-expressed in 293 cells; also called NR1/2A

[5] = target: T5, NMDA receptor subunit NR1 (UniProt P35439 19-938); assay: as above
T5 construct: whole, on cells

[6] = target: T6, neuronal glutamate transporter EAAC1 (UniProt P51907 1-523); assay: as above
T6 construct: whole, on cells
T6 sequence (looked up): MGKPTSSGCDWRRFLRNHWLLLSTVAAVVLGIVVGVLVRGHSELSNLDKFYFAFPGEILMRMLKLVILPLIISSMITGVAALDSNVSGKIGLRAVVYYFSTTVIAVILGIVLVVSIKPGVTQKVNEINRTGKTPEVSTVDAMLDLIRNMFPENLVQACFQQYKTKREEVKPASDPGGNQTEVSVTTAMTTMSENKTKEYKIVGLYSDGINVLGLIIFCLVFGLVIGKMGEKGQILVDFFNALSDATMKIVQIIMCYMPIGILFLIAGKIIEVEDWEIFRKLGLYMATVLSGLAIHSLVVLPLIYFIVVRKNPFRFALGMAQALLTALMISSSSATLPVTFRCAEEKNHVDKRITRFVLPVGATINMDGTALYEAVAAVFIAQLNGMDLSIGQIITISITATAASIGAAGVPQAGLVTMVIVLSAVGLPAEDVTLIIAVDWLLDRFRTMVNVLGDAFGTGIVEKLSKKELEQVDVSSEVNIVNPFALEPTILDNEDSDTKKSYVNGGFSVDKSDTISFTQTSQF

[7] = target: metabotropic glutamate receptor mGluR5 (UniProt P31424 21-1203, limits assumed); assay: biochemical assays, not described further
Sequence of metabotropic glutamate receptor mGluR5 (P31424 21-1203 limits assumed): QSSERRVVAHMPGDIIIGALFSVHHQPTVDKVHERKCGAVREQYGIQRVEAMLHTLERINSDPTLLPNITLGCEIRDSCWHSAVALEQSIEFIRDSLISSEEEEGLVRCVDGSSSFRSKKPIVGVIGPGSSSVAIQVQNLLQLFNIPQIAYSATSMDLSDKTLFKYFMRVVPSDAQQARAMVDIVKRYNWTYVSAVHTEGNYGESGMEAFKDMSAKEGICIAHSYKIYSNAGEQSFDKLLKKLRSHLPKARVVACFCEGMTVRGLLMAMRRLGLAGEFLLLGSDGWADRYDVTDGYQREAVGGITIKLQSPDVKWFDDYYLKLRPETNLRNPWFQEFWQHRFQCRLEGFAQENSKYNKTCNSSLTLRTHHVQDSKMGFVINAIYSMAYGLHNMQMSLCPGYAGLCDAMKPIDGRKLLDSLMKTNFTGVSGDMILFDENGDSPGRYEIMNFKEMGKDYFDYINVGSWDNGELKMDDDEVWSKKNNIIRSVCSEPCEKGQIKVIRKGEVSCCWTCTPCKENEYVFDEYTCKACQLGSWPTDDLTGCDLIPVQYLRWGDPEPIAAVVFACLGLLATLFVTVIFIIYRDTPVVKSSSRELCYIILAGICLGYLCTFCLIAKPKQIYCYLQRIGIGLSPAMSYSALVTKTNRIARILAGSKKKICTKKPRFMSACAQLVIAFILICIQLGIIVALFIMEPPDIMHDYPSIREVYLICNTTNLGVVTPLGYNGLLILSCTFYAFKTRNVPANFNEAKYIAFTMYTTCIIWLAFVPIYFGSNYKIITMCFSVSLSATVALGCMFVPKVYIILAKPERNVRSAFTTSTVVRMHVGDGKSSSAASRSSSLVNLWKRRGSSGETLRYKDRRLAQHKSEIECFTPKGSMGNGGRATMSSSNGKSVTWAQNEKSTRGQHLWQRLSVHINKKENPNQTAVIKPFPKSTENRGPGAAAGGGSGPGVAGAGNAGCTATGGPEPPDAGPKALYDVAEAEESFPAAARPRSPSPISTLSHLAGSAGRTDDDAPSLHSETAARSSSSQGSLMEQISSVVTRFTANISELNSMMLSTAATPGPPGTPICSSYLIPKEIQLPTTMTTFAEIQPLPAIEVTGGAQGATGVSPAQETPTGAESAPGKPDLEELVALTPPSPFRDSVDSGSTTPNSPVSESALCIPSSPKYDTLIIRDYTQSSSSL

binding result [1]: no binding | binding result [2]: no binding | binding result [3]: no binding | binding result [4]: no binding | binding result [5]: no binding | binding result [6]: no binding | binding result [7]: no binding
B1: Neuronal activity regulated pentraxin (Narp) (ligand)
chain: QAQDNPIPGSRFVCTALPPEAARAGCPLPAMPMQGGALSPEEELRAAVLHWRETVVQQKETLGAQREAIRELTSKLARCEGLAGGKARGTGATGKDTMGDLPRDPGHVVEQLSRSLQTLKDRLESLELQLHTNASNAGLPSDFREVLQRRLGELERQLLRKVAELEDEKSLLHNETSAHRQKTENTLNALLQRVTELERGNSAFKSPDAFKVSLPLRTNYLYGKIKKTLPELYAFTICLWLRSSASPGIGTPFSYAVPGQANEIVLIEWGNNPIELLINDKVAQLPLFVSDGKWHHICITWTTRDGMWEAFQDGEKLGTGENLAPWHPIKPGGVLILGQEQDTVGGRFDATQAFVGELSQFNIWDRVLRAQEIINIANCSTNMPGNIIPWVDNNVDVFGGASKWPVETCEERLLDL
notes: Secreted, glycosylated, disulfide-linked multimer (>220 kDa on non-reducing gels); The signal peptide is called putative; also called neuronal pentraxin 2; untagged Narp

Reference: patent publication US20090123940A1 (Johns Hopkins, published 2009)
